We go through ten molecules from patent US20260356969 (published 2026).

Assay [1] addresses T1, CD26 (human, UniProt P27487). As to the kind of experiment: BLI.
Assay [2] concerns the target T1, CD26. In words: BLI. This is another data set of the same source.
In assay [3] the target is 23G645 CD26 fragment 498-766 (human). In words: FACS.
The target of assay [4] is 21G585 CD26 fragment 29-182 (human). In words: FACS.
The target of assay [5] is 21G584 CD26 fragment 29-237 (human). As to the kind of experiment: FACS.
Assay [6] has as its target 21G583 CD26 fragment 29-300 (human). As to the kind of experiment: FACS.

Where two headings read alike, the source gives them in different places. Some results are limits rather than exact numbers.

T1 sequence (P27487 29-766): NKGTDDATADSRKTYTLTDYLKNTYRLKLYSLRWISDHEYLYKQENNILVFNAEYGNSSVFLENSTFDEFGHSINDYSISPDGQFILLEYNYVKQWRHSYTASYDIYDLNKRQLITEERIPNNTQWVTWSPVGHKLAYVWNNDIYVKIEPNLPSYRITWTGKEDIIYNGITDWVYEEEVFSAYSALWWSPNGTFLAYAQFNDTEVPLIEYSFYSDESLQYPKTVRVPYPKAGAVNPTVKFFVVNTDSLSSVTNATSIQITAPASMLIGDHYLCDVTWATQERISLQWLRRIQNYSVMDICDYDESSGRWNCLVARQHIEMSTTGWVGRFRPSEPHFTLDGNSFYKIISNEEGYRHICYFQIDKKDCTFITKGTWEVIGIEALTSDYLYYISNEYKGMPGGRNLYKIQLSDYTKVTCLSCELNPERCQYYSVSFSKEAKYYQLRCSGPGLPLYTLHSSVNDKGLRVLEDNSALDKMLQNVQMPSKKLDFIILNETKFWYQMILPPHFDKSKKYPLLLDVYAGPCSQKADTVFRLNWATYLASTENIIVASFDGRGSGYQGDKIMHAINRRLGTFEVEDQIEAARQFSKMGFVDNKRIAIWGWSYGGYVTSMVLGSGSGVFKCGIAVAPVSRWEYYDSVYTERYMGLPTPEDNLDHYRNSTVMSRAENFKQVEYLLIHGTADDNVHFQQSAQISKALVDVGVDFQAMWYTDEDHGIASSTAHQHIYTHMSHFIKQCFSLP
Chain of 21G583 CD26 fragment 29-300 (human) (chain, as listed by the source): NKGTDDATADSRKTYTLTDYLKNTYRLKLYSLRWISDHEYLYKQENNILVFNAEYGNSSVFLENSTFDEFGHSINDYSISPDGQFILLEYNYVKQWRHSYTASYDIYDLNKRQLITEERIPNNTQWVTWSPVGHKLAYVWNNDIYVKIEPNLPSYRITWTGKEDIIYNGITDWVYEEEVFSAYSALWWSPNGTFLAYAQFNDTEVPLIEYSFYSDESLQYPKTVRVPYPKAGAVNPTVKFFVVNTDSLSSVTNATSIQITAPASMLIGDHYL
Chain of 23G645 CD26 fragment 498-766 (human) (chain, as listed by the source): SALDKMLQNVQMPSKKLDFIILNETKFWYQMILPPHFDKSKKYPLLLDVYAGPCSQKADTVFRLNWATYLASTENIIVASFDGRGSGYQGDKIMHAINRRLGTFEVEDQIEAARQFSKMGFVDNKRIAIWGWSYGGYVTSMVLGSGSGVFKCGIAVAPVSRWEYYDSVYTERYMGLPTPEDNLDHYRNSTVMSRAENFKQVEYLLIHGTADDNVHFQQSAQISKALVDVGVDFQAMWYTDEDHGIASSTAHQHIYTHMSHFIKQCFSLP
Chain of 21G584 CD26 fragment 29-237 (human) (chain, as listed by the source): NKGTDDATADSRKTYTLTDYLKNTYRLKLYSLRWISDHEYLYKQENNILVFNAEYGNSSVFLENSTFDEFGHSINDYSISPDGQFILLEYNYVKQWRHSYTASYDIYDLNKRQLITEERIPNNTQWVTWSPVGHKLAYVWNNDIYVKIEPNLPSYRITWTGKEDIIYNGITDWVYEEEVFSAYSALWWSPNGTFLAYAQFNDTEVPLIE
Chain of 21G585 CD26 fragment 29-182 (human) (chain, as listed by the source): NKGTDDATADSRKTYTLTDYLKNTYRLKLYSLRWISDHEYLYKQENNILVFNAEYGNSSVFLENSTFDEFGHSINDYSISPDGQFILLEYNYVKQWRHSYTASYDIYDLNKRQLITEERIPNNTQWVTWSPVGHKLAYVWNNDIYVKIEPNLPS

B1: 17G61 (CD26 arm) (antibody)
chain: DIVMTQAAPSVSVTPGESVSISCRSDKSLLHSNGNTYLYWFLQRPGQSPQVLIYRMSNLASGVPDRFSGSGSGTGFTLRVSRVEAEDVGVYYCFQQLEYPYTFGGGTKLEIKGGGGSGGGGSGGGGSEVQLQQSGAELVKPGASVKLSCTASGFNIKDTYIYWVKQRPGQGLEWIGRIEPMNGNTKYDPKFQGKATMTANTSSNTAYLHLSSLASEDTAVYFCSRGGWLLLYVMDYWGQGTSVTVSS
B1: in the assay with CD26 [1], binding was put at a Kd of 17.3 nM.

B2: 17G29 (CD26 arm, YS110) (antibody, V domains shown)
VH: EVQLVESGAGVKQPGGTLRLTCTASGFSLTTYGVHWVRQAPGKGLEWVGVIWGDGRTDYDAAFMSRVTISKDTSKSTVYLQMNSLRAEDTAVYYCMRNRHDWFDYWGQGTTVTVSS
VL: DILLTQSPSSLSATPGERATITCRASQGIRNNLNWYQQKPGQAPRLLIYYSSNLQSGVPSRFSGSGSGTDFTLTISRLQPEDVAAYYCQQSIKLPFTFGSGTKVEIK
In turn, B2 came in with a Kd in the assay with CD26 [2] of 1.18 nM.

B3: 19G292 (CD26 arm) (antibody, V domains shown)
VH: QVQLLQSGAEVVKPGASVKISCKASGFNIKDTYIYWVKQPTGQGLEWIGRIEPMNGNTKYDPKFQGRFTMTANTSINTAYLQLSSLTSEDTAVYYCSRGGWLLLYVMDYWGQGTTVTVSS
VL: DIVMTQSASSLPVTPGESVSISCRSDKSLLHSNGNTYLYWFLQRPGQSPQVLIYRMSNLASGVPDRFSGSGSGTEFTLTISRVEAEDVGVYYCFQQLEYPYTFGPGTKLEIK
Consider B3, for which, in the assay with CD26 [2], the Kd is < 0.001 nM.

B4: 21G428-429 (antibody, V domains shown)
VH: EVQLVQSGAELVKPGASVKLSCAASGFNIKDTYIYWVRQAPGQGLEWVGRIEPMNGNTKYDPKFQGRFTMTANTSKNTAYLQLSSLRSEDTAVYYCSRGGWLLLYVMDYWGQGTLVTVSS
VL: DIVMTQSPSSLSVTPGERVSISCRSDKSLLHSNGNTYLYWFLQKPGQSPQVLIYRMSNLASGVPDRFSGSGSGTDFTLTISRVEAEDVGVYYCFQQLEYPYTFGQGTKLEIKR
For the molecule B4, the binding result in assay [3], in assay [4], in assay [5] and in assay [6] was “no binding” throughout.

B5: 19G293 (CD26 arm) (antibody, V domains shown)
VH: QVQLVQSGAELVKPGASVKLSCKASGFNIKDTYIYWVRQAPGQGLEWIGRIEPMNGNTKYDPKFQGRVTMTANTSINTAYLELSSLRSEDTAVYYCSRGGWLLLYVMDYWGQGTLVTVSS
VL: DIVMTQSPLSLSVTPGEPASISCRSDKSLLHSNGNTYLYWFLQKPGQSPQVLIYRMSNLASGVPDRFSGSGSGTDFTLKISRVEAEDVGVYYCFQQLEYPYTFGQGTKLEIK
For B5, the dissociation constant Kd in the assay with CD26 [2] was < 0.001 nM.

B6: 21G587 (CD26 arm) (antibody, V domains shown)
VH: EVQLVQSGAELVKPGASVKLSCAASGFNIKDTYIYWVRQAPGQGLEWVGRIEPMNGNTKYDPKFQGRFTMTANTSKNTAYLQLSSLRSEDTAVYYCSRGGWLLLYVMDYWGQGTLVTVSS
VL: DIVMTQSPSSLSVTPGERVSISCRSDKSLLHSNGNTYLYWFLQKPGQSPQVLIYRMSNLASGVPDRFSGSGSGTDFTLTISRVEAEDVGVYYCFQQLEYPYTFGQGTKLEIK
Molecule B6 displayed an equilibrium dissociation constant (Kd) with CD26 [2] of 0.352 nM.

B7: 19G294 (CD26 arm) (antibody, V domains shown)
VH: EVQLVQSGAELVKPGASVKLSCAASGFNIKDTYIYWVRQAPGQGLEWVGRIEPMNGNTKYDPKFQGRFTMTANTSKNTAYLQLSSLRSEDTAVYYCSRGGWLLLYVMDYWGQGTLVTVSS
VL: DIVMTQSPSSLSVTPGERVSISCRSDKSLLHSNGNTYLYWFLQKPGQSPQVLIYRMSNLASGVPDRFSGSGSGTDFTLTISRVEAEDVGVYYCFQQLEYPYTFGQGTKLEIK
Molecule B7 displayed a dissociation constant Kd with CD26 [2] of 0.914 nM.

B8: 19G297 (CD26 arm) (antibody, V domains shown)
VH: EVQLQESGPGLVKPSGTLSLTCAVSGDSITSGYWHWIRQAPGKGLEWVGYINYSGYTYYNPSLKSRFTISRDTSKNQYYLQLNSVTAEDTAVYYCTSERNWGAFAYWGQGTLVTVSS
VL: ENVLTQSPASLSASPGERVTITCRASSSVISTYLHWYQQKPGQAPKLWIYSTSNLASGVPARFSGSGSGTDYTLTISSVEPEDFATYYCQQFSGYPYTFGQGTKLEIK
Molecule B8 registered a Kd with CD26 [2] of 4.4 nM.

B9: 19G296 (CD26 arm) (antibody, V domains shown)
VH: QVQLQESGPGLVKPSETLSLTCTVSGDSITSGYWHWIRQPPGKGLEWIGYINYSGYTYYNPSLKSRFTISRDTSKNQYYLQLNSVTAEDTAVYYCTSERNWGAFAYWGQGTLVTVSS
VL: ENVLTQSPATLSASPGERATLSCRASSSVISTYLHWYQQKPGQAPKLWIYSTSNLASGVPARFSGSGSGTDYTLTISSVEPEDFAVYYCQQFSGYPYTFGQGTKLEIK
For B9, binding with CD26 [2] was put at a Kd of 14.8 nM.

B10: 17G105 (CD26 arm) (antibody)
chain: DIVLTQSPASLAVSLGQRATISCRASESVEYYGTSLMQWYQQKPGQPPKLLIYTASNVESGVPVRFSGSGSGTDFSLNIHPVEEDDIAMYFCQQSRKVPYTFGGGTKLEIKGGGGSGGGGSGGGGSQVQLQQSGPELMKPGASVKISCKATGYSFSGFWIEWVKQRPGHGLEWIGEILPGSGASNYHENFKGRATITADTSANTAYMQLRSLTSEDSAVYYCARERYYGSKYFDVWGAGTTVTVSS
With B10, the affinity with CD26 [1], expressed as Kd, was 39.3 nM.
